The text below walks through data of patent US20160024199A1 (US Dept. of Health and Human Services, published 2016).

In assay [1] the target is T1, recombinant human insulin-like growth factor I (IGF-I) (human, UniProt P05019 49-118).
T1 construct: coated or coupled to a CM5 chip in ELISA and Biacore; also called biotinylated IGF-I
Nature of the assay: ELISA, serial dilutions of IgG on coated IGF-I, detected with HRP anti-human Fc antibody. In general terms: ELISA stands for enzyme-linked immunosorbent assay.

Assay [2] has as its target T1, recombinant human insulin-like growth …. Nature of the assay: ELISA on coated IGF-I after incubation of the antibody with an equal volume of human serum at 37 C for 0 to 9 days.
The target is the same in assay [3]. Nature of the assay: Biacore, IgG1 format (effective KD, avidity). (Surface plasmon resonance follows binding to a sensor surface in real time, without labels.)
The target in assay [4] is T2, human insulin-like growth factor II (IGF-II) (human, UniProt P01344 25-91).
T2 construct: also called biotinylated IGF-II
Nature of the assay: Biacore, IgG1 format (effective KD, avidity).

Assay [5] concerns the target T1, recombinant human insulin-like growth …. Nature of the assay: Biacore, IgG1 format.
Assay [6] deals with T2, human insulin-like growth factor II …. Nature of the assay: Biacore, IgG1 format.
Assay [7] addresses T1, recombinant human insulin-like growth …. Nature of the assay: cell-based or functional assay.
Assay [8] deals with T2, human insulin-like growth factor II …. Nature of the assay: cell-based or functional assay.
The target is the same in assay [9]. Nature of the assay: ELISA on coated IGF-II after incubation of the antibody with an equal volume of human serum at 37 C for 0 to 9 days.
Another assay addresses human insulin (human). Nature of the assay: ELISA, 10 nM IgG on coated human insulin, detected with HRP anti-human Fc antibody.
Assay [10] addresses T2, human insulin-like growth factor II …. Nature of the assay: ELISA, serial dilutions of IgG on coated IGF-II, detected with HRP anti-human Fc antibody.
Assay [11] addresses T1, recombinant human insulin-like growth …. Nature of the assay: Biacore X100, antigen immobilized on CM5, soluble scFv injected.
Assay [12] addresses T2, human insulin-like growth factor II …. The description is as above.
Assay [13] has as its target T1, recombinant human insulin-like growth …. Nature of the assay: FACS titration of yeast-displayed scFv with biotinylated antigen.
The target of assay [14] is T2, human insulin-like growth factor II …. The description is as above.
Assay [15] concerns the target T1, recombinant human insulin-like growth …. Nature of the assay: ELISA on coated IGF-I after incubation of the antibody with an equal volume of human serum at 37 C for 0 to 9 days. The source holds these as a separate data set.
Assay [16] has as its target T2, human insulin-like growth factor II …. Nature of the assay: ELISA on coated IGF-II after incubation of the antibody with an equal volume of human serum at 37 C for 0 to 9 days. This is another data set of the same source.
In assay [17] the target is T1, recombinant human insulin-like growth …. Nature of the assay: FACS titration of yeast-displayed scFv with biotinylated antigen. This is another data set of the same source.
Assay [18] concerns the target T2, human insulin-like growth factor II …. The assay is described as above. The source holds these as a separate data set.

The term EC50 (read off the curve) denotes the concentration needed to bring the measured effect to its halfway point. The koff is the first-order rate constant of dissociation. In general, kon refers to a measure of how fast the partners come together.

T2 sequence (P01344 25-91): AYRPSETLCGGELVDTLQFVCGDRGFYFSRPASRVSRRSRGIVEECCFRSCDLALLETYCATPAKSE
T1 sequence (P05019 49-118 limits assumed): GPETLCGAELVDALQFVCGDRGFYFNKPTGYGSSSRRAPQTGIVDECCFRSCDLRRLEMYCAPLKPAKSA
human insulin (human), sequence (chain, as listed by the source limits assumed, chain 1 of 2): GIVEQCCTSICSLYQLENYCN
human insulin (human), sequence (chain, as listed by the source limits assumed, chain 2 of 2): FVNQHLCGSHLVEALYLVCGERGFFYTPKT

B1: IgG1 m708.5 (antibody, V domains shown)
VH: QVQLQQLGAEVKMPGSSVKVSCKASGGTFSSYAISWVRQAPGQGLEWMGGIIPTLGIVKYAQKFQGRVTITADKSTSTAYMELSSLGSEDTAVYYCAGGPRGYSYNFDNWGQGTLVTVSS
VL: DIQMTQSPSSLSASVGDRVTIVCRASQTISRYVNWYQQKPGKAPKLLIYAASSLQSGVSSRFSGSGSGTEFALTISSLQPEDFATYFCQQTYSPPITFGQGTRLEIKQ
notes: Human IgG1, converted from the scFv in vector pDR12 and expressed in 293 FreeStyle cells; also called m708.5 IgG; IgG m708.5
Regarding B1, the concentration giving a half-maximal response (EC50 (read off the curve)) in [1] is about 0.4 nM; in [2], about 2 nM; in assay [9], about 2 nM; in assay [10] it was about 0.1 nM. The Kd in assay [3] and in [4] was under 0.001 nM throughout. Also, the “fold change of effective KD against the scFv” value is 1000 fold in assay [5] and 60 fold in [6]. Moreover, the “growth inhibition of MCF-7 cells (MTS, 3 days; 2.5 nM IGF-I and 2.5 nM IGF-II added)” value (from here on “growth inhibition of MCF-7 cells”) in assay [7] and in assay [8] was over 40 nM throughout. Besides, the binding result with human insulin was “no binding (tested: 10 nM)”.

B2: m708.2 scFv (scFv, V domains shown)
VH: QVQLQQPGAEVKKPGSSVKVSCKASGGTFSSYAISWVRQAPGQGLEWMGGIIPILGIANYAQKFQGRVTITADESTSTAYMELSSLRSEDTAVYYCARGPRGYSYNFDYWGQGTLVTVSS
VL: DIQMTQSPSSLSASVGDRVTIACRASQTISRYLNWYQQKPGKAPKLLIYAASSLQSGVSSRFSGSGSGTEFTLTISSLQPEDFATYFCQQTYSPPITFGQGTRLEIKR
notes: One-chain scFv; Biacore on the isolated soluble scFv from pComb3x
As to B2, the Kd stood at 2.2 nM in assay [11], 1.8 nM in [12], 3.9 nM in assay [13] and 1.1 nM in assay [14]. Also, the koff came to 0.0024 s⁻¹ in assay [11] and 0.0004 s⁻¹ in assay [12]. The kon in assay [11] is 1.1e+06 M⁻¹ s⁻¹; in [12], 230000 M⁻¹ s⁻¹.

B3: bispecific antibody m67 (bispecific antibody)
chain 1: QVQLVQSGAEVKKPGASVKVSCKASGYTFTSYYMHWVRQAPGQGLEWMGIINPSGGSTSYAQKFQGRVTMTRDTSTSTVYMELSRLRSDDTAVYYCARDVQWLAYGMDVWGQGTTVTVSS
chain 2: DIQMTQSPSSLSASVGDRVTITCRASQSISSYLNWYQQKPGRAPDLLINAASSLQSGVPSRFSGSGSGTDFTLTISSLQPEDFATYFCQQSYSLPFTFGGGTKVEIK
chain 3: QVQLQQLGAEVKMPGSSVKVSCKASGGTFSSYAISWVRQAPGQGLEWMGGIIPTLGIVKYAQKFQGRVTITADKSTSTAYMELSSLGSEDTAVYYCAGGPRGYSYNFDNWGQGTLVTVSS
chain 4: DIQMTQSPSSLSASVGDRVTIVCRASQTISRYVNWYQQKPGKAPKLLIYAASSLQSGVSSRFSGSGSGTEFALTISSLQPEDFATYFCQQTYSPPITFGQGTRLEIKQ
As for B3, the “EC50 (read off the curve)” value in assay [15] was about 1 nM; in [16], about 3 nM.

B4: IgG1 m708.2 (antibody, V domains shown)
VH: QVQLQQPGAEVKKPGSSVKVSCKASGGTFSSYAISWVRQAPGQGLEWMGGIIPILGIANYAQKFQGRVTITADESTSTAYMELSSLRSEDTAVYYCARGPRGYSYNFDYWGQGTLVTVSS
VL: DIQMTQSPSSLSASVGDRVTIACRASQTISRYLNWYQQKPGKAPKLLIYAASSLQSGVSSRFSGSGSGTEFTLTISSLQPEDFATYFCQQTYSPPITFGQGTRLEIKR
notes: Human IgG1 (pDR12, 293 FreeStyle cells); also called IgG m708.2; IgG708.2
Consider B4, for which the “EC50 (read off the curve)” value in [1] was about 3 nM. Also, in assay [7], the “IGF-I-induced (1 nM) phosphorylation of IGF-IR in MCF-7 cells, immunoblot” value is 10 nM; the “growth inhibition of MCF-7 cells” value is over 80 nM. The “growth inhibition of MCF-7 cells” value in assay [8] was over 80 nM.

B5: m708.5 scFv (scFv, V domains shown)
VH: QVQLQQLGAEVKMPGSSVKVSCKASGGTFSSYAISWVRQAPGQGLEWMGGIIPTLGIVKYAQKFQGRVTITADKSTSTAYMELSSLGSEDTAVYYCAGGPRGYSYNFDNWGQGTLVTVSS
VL: DIQMTQSPSSLSASVGDRVTIVCRASQTISRYVNWYQQKPGKAPKLLIYAASSLQSGVSSRFSGSGSGTEFALTISSLQPEDFATYFCQQTYSPPITFGQGTRLEIKQ
notes: One-chain scFv; also called scFv m708.5
B5: the Kd in [11] was found to be 0.2 nM; in assay [12], 0.061 nM; in assay [13], 0.1 nM; in assay [14], 0.041 nM. Besides, the koff turned out to be 0.00028 s⁻¹ in [11] and 0.00025 s⁻¹ in [12]. Besides, the results for the kon in [11] and in [12] were 1.4e+06 M⁻¹ s⁻¹ and 4.1e+06 M⁻¹ s⁻¹, respectively. In addition, the “fold improvement of affinity against m708.2” value in [17] was 39 fold; in assay [18] it was 27 fold.
